Measurements from the supplement of paper PMC9732359.
± gives the uncertainty stated by the source.

Experiment: protein stability index of a GFP-peptide fusion (yeast GPS) (PSI 1-4); higher = more stable; sorted into four equal gates, so the index is relative within each strain
Summary of the method: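 Tiled 17-residue peptides from yeast proteins were fused downstream of GFP on a plasmid that also expresses Cherry, and the pooled library was carried in yeast. Mid-log cultures grown in leucine-free medium were sorted into four equal gates by GFP/Cherry fluorescence ratio. Plasmids from each gate were PCR-amplified and Illumina-sequenced, and reads were assigned to strains by barcodes. Each peptide's protein stability index is the sum, over gates, of the gate's read frequency multiplied by its gate number.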

Sequence | protein stability index (doa10∆) | protein stability index (pdr5∆) | protein stability index (san1∆) | protein stability index (ubr1∆)
AVPLQIVSPQSNKPCMG [RPO21] | 1.72 ± 0.059 | 1.71 ± 0.038 | 2.03 ± 0.065 | 1.78 ± 0.035
AAQDVWNRADNHFKDTY [FAS1] | 3.05 ± 0.18 | 3.14 ± 0.1 | 3.19 ± 0.11 | 3.53 ± 0.13
LDERFASRVALNKEKLG [IRR1] | 1.27 ± 0.057 | 1.52 ± 0.1 | 1.57 ± 0.18 | 1.55 ± 0.087
YDIDEIDHSDESNRQSV [ESC2] | 3.19 ± 0.14 | 3.35 ± 0.096 | 3.23 ± 0.13 | 3.84 ± 0.25
TSAHLKLKEMQKVLNAH [SMC4] | 2.41 ± 0.13 | 2.76 ± 0.17 | 2.63 ± 0.096 | 1.97 ± 0.085
TAKKDMSSTTPKLESVK [SNF12] | 3.31 ± 0.056 | 3.35 ± 0.05 | 3.1 ± 0.042 | 3.27 ± 0.04
PTLAGMAQRTLKNKYES [FAS2] | 2.76 ± 0.031 | 2.67 ± 0.027 | 2.63 ± 0.029 | 2.657 ± 0.02
GRLSLRSLTAYAPNLML [QCR10] | 1.26 ± 0.041 | 1.9 ± 0.051 | 1.63 ± 0.081 | 1.42 ± 0.06
IHKRYIDLEAPVQIVKR [RPS20] | 2.5 ± 0.13 | 2.78 ± 0.15 | 2.51 ± 0.14 | 2.96 ± 0.12
DSSSNTYRSRAQQVPPY [SIN4] | 2.89 ± 0.097 | 2.88 ± 0.17 | 3.15 ± 0.062 | 1.61 ± 0.11
FNKYADPTLTTTTSFTT [RPN4] | 2.35 ± 0.035 | 2.57 ± 0.042 | 2.26 ± 0.04 | 2.48 ± 0.029
VNGSITDQLIQNIETRQ [NUT1] | 3.22 ± 0.079 | 3.01 ± 0.092 | 3.05 ± 0.071 | 3.15 ± 0.042
PQRLTVLRLATNKGPLA [MCD1] | 2.78 ± 0.099 | 2.39 ± 0.073 | 2.8 ± 0.074 | 2.42 ± 0.074
MSRDAPIKADKDYSQIL [RPN5] | 2.97 ± 0.1 | 2.44 ± 0.078 | 2.21 ± 0.13 | 2.67 ± 0.062
DDEEYDYNDVEVNSKKK [BRR2] | 3.3 ± 0.051 | 3.18 ± 0.051 | 3.32 ± 0.053 | 3.33 ± 0.036
DDDLFETLVLSYFSPIN [YCG1] | 2.23 ± 0.069 | 1.44 ± 0.05 | 1.36 ± 0.093 | 1.35 ± 0.032
LVAKFLYPIFLLDDKKL [YJR042W/NUP85] | 1.49 ± 0.034 | 1.29 ± 0.033 | 1.16 ± 0.073 | 1.26 ± 0.027
PKAVVDHINGSGKRKPT [GAL11] | 2.25 ± 0.076 | 2.81 ± 0.064 | 1.52 ± 0.11 | 2.16 ± 0.079
YPVYTRLRTLCRDSDDH [DIS3] | 2.56 ± 0.2 | 2.77 ± 0.13 | 2.29 ± 0.24 | 2.95 ± 0.046
LQEKFLNQIATLKIHLK [IRR1] | 1.22 ± 0.12 | 1.4 ± 0.11 |  | 1.03 ± 0.093
RAVANRTDATFIRVIGS [RPT1] | 3.22 ± 0.1 | 3.26 ± 0.069 | 3.17 ± 0.082 | 3.09 ± 0.062
SKKRQAEKLVPLPICHA [YML031W/NDC1] | 2.33 ± 0.12 | 2.5 ± 0.049 | 2.39 ± 0.087 | 2.39 ± 0.093
RILSTLDRELLKPSMSV [RPT3] | 3.04 ± 0.081 | 2.73 ± 0.11 | 3.07 ± 0.073 | 2.57 ± 0.15
LLNILSGLPTCDYYNTF [RPN2] | 2.44 ± 0.1 | 2.73 ± 0.13 | 2.03 ± 0.16 | 2.3 ± 0.095
LSQVYPTLVRSVISGNL [CSN12] | 2.54 ± 0.072 | 2.92 ± 0.08 | 2.83 ± 0.1 | 2.48 ± 0.078
LLPPIKIELIKNNLLIP [RPN12] | 2.16 ± 0.071 | 2.24 ± 0.062 | 1.75 ± 0.11 | 2.09 ± 0.044
SIVEECDARFDEKTIEE [RPC17] | 2.98 ± 0.14 | 3.05 ± 0.088 | 3.09 ± 0.11 | 2.68 ± 0.21

Sequence | protein stability index (doa10∆) | protein stability index (pdr5∆) | protein stability index (san1∆) | protein stability index (ubr1∆)
SSEQDYSTLKELLEYSD [YCG1] | 2.92 ± 0.082 | 2.75 ± 0.088 | 3.15 ± 0.068 | 3.15 ± 0.086
DQAMEKKPSPQTIPIQI [YGR119C/NUP57] |  | 2.85 ± 0.24 |  | 
AVHVTVRGPKAEEILER [RPL11A] | 2.99 ± 0.11 | 2.98 ± 0.094 | 2.92 ± 0.12 | 3.05 ± 0.074
GDQFLRYVNLLGVTYSS [PRE4] | 2.27 ± 0.1 | 2.33 ± 0.062 | 2.1 ± 0.075 | 2.02 ± 0.042
STLEPTLRKELEQIQVQ [YIL149C/MLP2] | 2.75 ± 0.096 | 3.01 ± 0.088 | 2.89 ± 0.062 | 2.3 ± 0.048
SCHGHFGHLKLALPVFH [RPO31] | 1.44 ± 0.054 | 1.4 ± 0.057 | 1.23 ± 0.1 | 1.18 ± 0.035
LFQDGSASLHTRSLKYG [RRP4] | 2.48 ± 0.085 | 2.76 ± 0.088 | 2.59 ± 0.1 | 2.88 ± 0.059
SMFGSDQKTGRAKSSSH [RPN4] | 3.02 ± 0.087 | 3.25 ± 0.11 | 3.14 ± 0.071 | 2.9 ± 0.076
LLFNNDFPLLKVLAAHT [RRP40] | 1.23 ± 0.13 | 1.25 ± 0.11 | 1.18 ± 0.12 | 1.09 ± 0.058
LQSIVNEISRNGTMINE [PCI8] | 2.93 ± 0.12 | 2.64 ± 0.13 | 2.67 ± 0.13 | 2.9 ± 0.12
AKLWFYIYLSHETLARS [RPN3] | 1.69 ± 0.088 | 1.4 ± 0.086 | 1.68 ± 0.15 | 1.65 ± 0.084
NLCKIIEPFECVEISHI [RPN6] | 2.27 ± 0.12 | 2.09 ± 0.2 | 1.97 ± 0.11 | 
AIALAVRLGEEDMIRSV [RPN1] | 3.42 ± 0.14 | 3.4 ± 0.13 | 3.39 ± 0.1 | 3.39 ± 0.14
RTPVIISLRNNHKIIAR [SMD2] | 1.77 ± 0.042 | 1.97 ± 0.035 | 2.13 ± 0.06 | 1.81 ± 0.044
DLKSKGLIPADATFAGH [FAS1] | 3.04 ± 0.092 | 3.01 ± 0.074 | 3.07 ± 0.12 | 2.98 ± 0.065
SRAQILQIHSRKMTTDD [RPT5] | 2.72 ± 0.082 | 2.43 ± 0.055 | 2.92 ± 0.068 | 3.08 ± 0.046
KKNSSRPMPPIRGPKRR [SMD3] | 2.23 ± 0.043 | 1.86 ± 0.037 | 2.14 ± 0.055 | 2.81 ± 0.036
WVNNPKKRFTPHTVIRR [YDL088C/ASM4] | 3.42 ± 0.23 |  |  | 
YNRHKLQELIVNGPNVH [RPO31] | 1.19 ± 0.11 | 1.48 ± 0.1 | 1.2 ± 0.17 | 1.22 ± 0.095
KNLKPQEQLKNVKNDVS [YIL149C/MLP2] | 3.23 ± 0.089 | 3.21 ± 0.067 | 2.51 ± 0.1 | 3.01 ± 0.096
FQEGVVVAKKDFNQAKH [RPS10A] | 2.1 ± 0.27 | 2.92 ± 0.27 | 2.91 ± 0.16 | 2.79 ± 0.12
RHHWQYTKASLAKERQK [SSN8] | 1.74 ± 0.072 | 1.66 ± 0.07 | 1.4 ± 0.14 | 2.14 ± 0.064
ALLNFVLPKIFNSVKSF [SNF2] | 2.44 ± 0.094 | 1.71 ± 0.066 | 1.98 ± 0.11 | 1.33 ± 0.043
SQTPSFNTNSSFTPSTV [YOR098C/NUP1] | 2.4 ± 0.033 | 2.671 ± 0.025 | 2.52 ± 0.033 | 2.898 ± 0.026
KKLVWPLHLIFAQPVAD [SSN2] | 1.88 ± 0.075 | 1.39 ± 0.073 | 1.26 ± 0.11 | 1.17 ± 0.062
ISLLKNRRKQSFVLNKN [RPN4] | 3.52 ± 0.25 | 3.06 ± 0.25 | 3.04 ± 0.15 | 3.21 ± 0.14
LSNIEAQFLRSVVHPGE [RPO21] | 2.77 ± 0.1 | 2.73 ± 0.21 | 2.45 ± 0.1 | 2.97 ± 0.14
